In article PMC314469, “Protein Interaction Networks by Proteome Peptide Scanning” (PLoS Biology, 2004):

T1: Abp1 SH3 (ABP1_YEAST), P15891
T1 chain: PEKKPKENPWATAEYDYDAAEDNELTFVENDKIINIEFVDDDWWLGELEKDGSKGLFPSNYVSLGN


Molecular target: T1, Abp1 SH3 (ABP1_YEAST), P15891
Assay: SPOT array

Binder	normalised SPOT signal, Boehringer light units (BLU); mean over the file's lines of this peptide
RLNDQDHPLQAKP [YHR159W 69-81]	104
RPLIQKGPLYQKP [YDR104C 1028-1040]	359
RRKIERDPNAPKKP [YDR174W 96-109]	66.1
RELGLTRPISQKP [YHL009W-B 360-372]	2940
RKLTFADVKKPDKP [YMR273C 809-822]	62.6
RGTSASHSPRPFRP [YLL029W 24-37]	168
RPAGINDSPSPVKP [YGR092W 44-57]	71
RGNDESKNGTPPRP [YLR353W 192-205]	89.4
RPSQTLTPMGNKP [YGR097W 8-20]	4080
RFLPKPKVVGPPKP [YHR089C 121-134]	1660
RNLFDDAPATPPRP [YJL194W 14-27]	126
RSLSLMDPALQKP [YDR186C 539-551]	431
RLLLEFDEEYPNKP [YGL058W 54-67]	97.1
RRRDFGAPANKRP [YGR074W 130-142]	71.9
RIPVLPPPRSPNRP [YER158C 359-372]	7670
RLLSTKKPMFDRP [YKL219W 373-385]	955
RRKKQKKKPTPTRP [YKL089W 336-349]	33.3
RDPKTREPLQPRP [YGR084C 80-92]	297
RLSVKSSRRNPGKP [YGL041C 90-103]	125
RKKQKKKPTPTRP [YKL089W 337-349]	106

Binder	normalised SPOT signal, Boehringer light units (BLU); mean over the file's lines of this peptide
RNIPPPPPPPPPKP [YMR089C 152-165]	1000
RRQHEQWPAYEKP [YHR185C 60-72]	300
RQPTIATTDKPDRP [YDR246W 151-164]	83.4
RMTDSVLVKSPQKP [YLR006C 664-677]	2960
RDYYLSFPESERP [YDR242W 430-442]	41
RRSSYGYNEVPPKP [YHL024W 604-617]	188
RGQSLEHPVTKKP [YGR165W 94-106]	116
RRFSKRHNSNPRKP [YFR032C 54-67]	89
RIESRNEPLKTRP [YMR201C 33-45]	196
REYEKEFPGSYKP [YIL085C 485-497]	13.6
RNRASTLPSYPKP [YMR172W 515-527]	224
RNTAQSGNLKPERP [YEL062W 541-554]	115
RIFPPIDDPLPFKP [YDR284C 245-258]	92.4
RHAFRITPQAERP [YLL057C 379-391]	555
RSEKIMPFLSPPRP [YGL064C 428-441]	701
RPGIPLKPMLAKP [YDL164C 386-398]	42200
RLNAVKHPKILKP [YER081W 41-53]	188
RLSSVSLSKRPERP [YKL185W 146-159]	412
RQIMIKSPNDFKP [YBL034C 808-820]	2000
RPTQVSRPLGGRP [YDR024W 78-90]	3290

Continued, values first:

normalised SPOT signal, Boehringer light units (BLU); mean over the file's lines of this peptide	Binder
77.8	RKSSDIGHIDPWRP [YOR156C 78-91]
702	RLPKALLPIGNRP [YOR260W 63-75]
56.7	RQPIVQTPHVPDRP [YPR104C 727-740]
303	RERLRANPTDKKP [YOR023C 518-530]
112	RNFYKKYTGLPKKP [YOL090W 17-30]
373	RPQIYSEPTRTKP [YPR122W 608-620]
94.5	RLTSEPNPDLIRP [YPR045C 202-214]
72.5	REGQVLYDPEPFKP [YNL086W 58-71]
51	RDRGVLQEIRPAKP [YMR302C 753-766]
110	RFKYSTNRGIPARP [YPL073C 76-89]
344	RNTTLTWPQLFKP [YOR144C 235-247]
44.7	RNNAYLPEFEPNRP [YNL233W 771-784]
1050	RKTWESIPPKFRP [YOR236W 58-70]
615	RRMQKFLPPEGKP [YPR140W 364-376]
201	RDRLGTLPPDLRP [YPR179C 274-286]
2820	RPPPPPIPSTQKP [YNL094W 468-480]
159	RFSSVKTNRTPSKP [YOR196C 186-199]
121	RRSADIGTDKPVKP [YPL181W 404-417]
